Test results taken from patent US20060110769A1, “Regulation of novel human prolyl 4-hydroxylases” (Bayer Aktiengesellschaft, priority 2001, published 2006).

Molecular target: mouse hypoxia inducible factor-1 alpha (mouse) (UniProt Q61221)
Test: cell-based or functional assay

Sequence of mouse hypoxia inducible factor-1 alpha (mouse) (Q61221 whole entry): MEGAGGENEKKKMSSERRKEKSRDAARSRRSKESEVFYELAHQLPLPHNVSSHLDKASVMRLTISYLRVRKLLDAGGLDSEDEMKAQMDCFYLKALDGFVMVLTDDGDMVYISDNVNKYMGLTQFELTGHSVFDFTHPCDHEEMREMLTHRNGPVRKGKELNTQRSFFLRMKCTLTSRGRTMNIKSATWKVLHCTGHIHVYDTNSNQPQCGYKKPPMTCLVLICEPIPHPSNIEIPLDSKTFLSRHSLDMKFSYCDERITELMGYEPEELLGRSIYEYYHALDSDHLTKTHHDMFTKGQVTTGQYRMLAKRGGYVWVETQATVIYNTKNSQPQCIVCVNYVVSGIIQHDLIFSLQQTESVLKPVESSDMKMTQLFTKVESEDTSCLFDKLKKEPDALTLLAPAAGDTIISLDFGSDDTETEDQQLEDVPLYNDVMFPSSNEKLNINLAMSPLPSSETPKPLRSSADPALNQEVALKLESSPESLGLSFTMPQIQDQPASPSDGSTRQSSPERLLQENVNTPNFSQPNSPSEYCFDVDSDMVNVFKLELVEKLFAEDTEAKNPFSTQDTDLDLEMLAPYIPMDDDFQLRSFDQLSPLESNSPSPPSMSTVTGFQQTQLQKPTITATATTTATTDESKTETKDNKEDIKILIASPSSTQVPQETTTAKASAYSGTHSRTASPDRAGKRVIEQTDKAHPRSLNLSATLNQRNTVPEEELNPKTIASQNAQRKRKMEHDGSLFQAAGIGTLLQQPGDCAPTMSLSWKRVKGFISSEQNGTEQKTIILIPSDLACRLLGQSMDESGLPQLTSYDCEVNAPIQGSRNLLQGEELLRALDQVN

reduction of the transactivation activity of cotransfected HIF-1 alpha on the hypoxia responsive luciferase reporter (HEK/293 cells, equal amounts of each plasmid): 90%
Substance: EGLN3, human HIF-prolyl-hydroxylase (from UniProt Q9H6Z9 1-239)
